One block for each molecule: values may come before it.
Legend:
[1] = tested on: AP-1 dependent reporter gene; test: AP-1 dependent reporter gene (TRE-lacZ), microinjection into Rat-1 cells; assay type: cell-based; settings: for suppression of AP-1 reporter induction caused by anti-RKIP antibodies: MEK inhibitors given 1 h before microinjection
Text: In one embodiment, the RKIP protein inhibiting agent can be an antibody specifically recognizing an RKIP motif. For example, to examine the relevance of the interaction between RKIP and the kinases of the Raf/MEK/ERK module in mammalian cells, endogenous RKIP \was inhibited by antibody microinjection. Since the AP-1 transcription factor is a major target of Raf signaling (Kortenjann et al. Mol. Cell. Biol. 14:4815-4824, 1994;Rapp et al., Oncogene 9:3493-3498, 1994; Kolch et al. Oncogene 8:361-370, 1993), the influence of RKIP on AP-1 activity was tested as shown in FIG. 3.
Microinjections of antibodies and reporter genes were performed as described previously (Lavinsky et al. Proc. Natl. Acad. Sci. USA 95:2920-2925, 1998; Rose et al. J. Cell. Biol. 119:1405-1411, 1992). Briefly, quiescent Rat-1 cells were microinjected with the reporter plasmids and antibodies and either left unstimulated or treated with 200 ng/ml TPA or 20 μg/ml forskolin. The RKIP antiserum was purified over a GST-RKIP affinity column. NIH3T3 cells were stained with an activation specific anti-phospho-ERK monoclonal antibody (Sigma). ERK phosphorylation was quantified by densitometry. For this purpose areas with microinjected cells were randomly photographed, and the staining intensity of whole individual cells was measured using the PcBAS software.
(§1) In one embodiment, the present invention provides a method of identifying a cell growth modulating agent by analyzing the effect of a candidate agent on the expression of an RKIP responsive reporter. For example, to show the effect of the RKIP on the activity of the AP-1 mediated transcription, NIH 3T3 cells were co-transfected with a 3xTRE-CAT reporter and the above described expression plasmids. NIH 3T3 and 208F cells were transfected in 6-well plates with 1 μg of pCMV5-BXB and 3 μg of p53/RKIP using Superfect (Qiagen).
AP-1 luciferase assays and microinjection experiments with affinity-purified RKIP antiserum and TRE-lacZ reporter plasmids were carried out as previously described (Yeung et al. Nature, 401:173-177, 1999). […] This induction was due to the activation of MEK, since it could be suppressed by two structurally different MEK inhibitors, U0126 and PD98059 (FIG. 7(a)). […] These antibodies are therefore useful tools for investigating the molecular mechanism by which RKIP works. The RKIP antiserum interfered with the binding of Raf-1 and MEK to RKIP (FIG. 7(b)). […] Furthermore, the RKIP antibodies reversed the inhibitory effect of RKIP on MEK phosphorylation by Raf-1 (FIG. 7(c)).

Raf-1 [2] = target: T1, Raf-1 (Homo sapiens, UniProt P04049); test: In vitro kinase assay of reconstituted Raf/MEK/ERK cascade: Raf-1; assay type: biochemical
T1 construct: GST (cleaved yes); made in house; host or cells: Sf-9 insect cells
Experimental: (§2) Kinase assays were done as described in Hafner et al. (Mol. Cell. Biol. 14:6696-6703, 1994). Activated Raf-1 was generated by co-expressing GST-Raf-1 with v-Ras and Lck in Sf-9 cells and collected on glutathione Sepharose beads. Subsequent thrombin cleavage released Raf-1 which was fully active and >90% pure. To activate MEK and ERK in vitro, 20 ng activated Raf-1 was incubated with 40 ng purified His/MEK-1 and 250 ng GST-ERK-2 in Raf kinase buffer containing 20 μM ATP for 20 minutes at 30° C. To measure kinase activities at individual steps the respective downstream components were omitted. The activation reactions were diluted into 50 μl Raf kinase buffer containing 20 μm ATP to yield equimolar concentrations of the kinases to be assayed and incubated with increasing amounts of purified RKIP on ice for 10 minutes. Similar assays may be performed with smaller polypeptides comprising RKIP motifs, or even with a peptide consisting essentially of an RKIP motif as defined herein. Then, 2 μCi [^32P]-γ-ATP and recombinant substrates were added and incubated for 20 minutes at 30° C. As substrates 200 ng kinase negative His/MEK-1 was used for Raf, 1 μg kinase negative GST-ERK for MEK, and 1 μg GST-ELK (New England Biolabs) for ERK. In some assays 1 μg GST-MEK was used as Raf-1 substrate with identical results.

GST-Raf-1 = target: T2, GST-Raf-1 (Homo sapiens, UniProt P04049); test: Binding of purified RKIP to inactive and activated GST-Raf-1 beads; settings: recombinant RKIP produced in E. coli
T2 construct: made in house; host or cells: Sf-9 insect cells
Experimental: Activated GST-Raf-1 was produced in Sf-9 insect cells co-infected with RasV12 and Lck, which results in a robust activation of the catalytic activity. GST-Raf-1 proteins were purified by adsorption to glutathione Sepharose beads and incubated with recombinant RKIP produced in E. coli. […] We also tested whether activation affected the binding of MEK and ERK to RKIP. Purified MEK and ERK were phosphorylated in vitro with recombinant Raf-1 or Raf-1 plus MEK, respectively, and incubated with GST or GST-RKIP beads. The binding reaction products were washed, separated on SDS gels, and immunoblotted with the appropriate antisera. […] However, since only small fractions of MEK and ERK become phosphorylated, we also carried out the phosphorylation in the presence of […] The blots were autoradiographed to detect phosphorylated MEK and ERK and were subsequently stained with the cognate antisera to visualize total protein bound. Under these conditions, binding of phosphorylated MEK and ERK to RKIP was evident.

NIH 3T3 and 208F cells = test: Transformation assays (morphological transformation, focus formation, soft agar); assay type: cell-based
Text: Additionally, NIH 3T3 cells were transfected with BXB, alone or together with RKIP (linked to neomycin/G418 resistance encoding gene). The G418-resistant colonies were counted and scored for morphological transformation. Aliquots of the same transfection were allowed to grow to confluency without drug and were scored for focus formation. A BXB-transformed cell line was infected with LXSH-RKIP retrovirus or LXSH (hygromycin resistant) and seeded in soft agar in the presence of hygromycin. […] The data are expressed as the reduction in focus formation relative to focus formation upon co-transfection with empty vector (set to 100%).

[3] = tested on: cell lines resistant to apoptosis; test: Sensitivity to apoptotic stimuli on RKIP expression; assay type: cell-based; settings: expression of RKIP; data not shown
AP-1 activity = test: 3xTRE-CAT reporter in NIH 3T3 cells co-transfected with RKIP; assay type: cell-based; settings: RKIP transfection
Experimental: as §1

MEKK-1 = test: MEK phosphorylation by immunoprecipitated MEKK-1; assay type: biochemical; settings: MEKK-1 immunoprecipitated from COS-1 cells, knMEK substrate
Experimental: “BSA” indicates use of 15 μM bovine serum albumin; “Co.” substrate alone; and “kn”, kinase negative mutant. […] HA-MEK-DD or HA-MEK-1 expressed in COS-1 cells were immunoprecipitated with anti-HA antibodies from serum starved cells or TPA treated cells, respectively, and assayed for kinase activity. […] MEKK-1 was immunoprecipitated from transiently transfected COS-1 cells and used to phosphorylate knMEK.

Raf-1-MEK complexes = target: T3, Raf-1-MEK complexes (Homo sapiens, UniProt P04049); test: Disruption of the Raf-1-MEK complex on glutathione Sepharose beads; assay type: binding; settings: in vitro, purified RKIP
T3 construct: made in house; host or cells: Sf-9 insect cells
Experimental: In vitro binding assays contained 5 μg of GST-fusion protein immobilized on glutathione Sepharose beads and 0.5-5 μg purified recombinant protein in PBS supplemented with 10% bovine serum as nonspecific competitor. Sf-9 cell lysates were used as source of Raf proteins (Hafner et al., 1994, Mol. Cell. Biol. 14: 6696-6703). After incubation for 1 hour at 4° C. the samples were washed 4 times with PBS, resolved by SDS-PAGE and blotted. The blots were developed using ECL (Amersham).
GST-MEK and Raf-1 were co-expressed in Sf-9 cells. The GST-MEK-Raf-1 complex was purified by adsorption to glutathione Sepharose beads, washed, and resuspended in PBS. Purified RKIP was added at the concentrations indicated. After 1 hour at 4° C., the GST-MEK beads were washed three times with PBS and examined for associated proteins by Western blotting (WB) with the indicated antisera.

MEK [4] = target: T4, MEK (Homo sapiens, UniProt Q02750); test: HA-MEK immunoprecipitate kinase activity in transfected COS-1 cells; assay type: cell-based; settings: co-transfection of RKIP, dose dependent
T4 construct: expressed in transfected cells; host or cells: COS-1
Experimental: (§3) The COS-1 cells were transfected as described (Catling et al., 1995, Mol. Cell. Biol. 15: 5214-5225) with 2 μg of HA-ERK-2, BXB, MEK and MEK-DD plasmids and the indicated amounts of p353/RKIP. The total amount of transfected DNA was kept constant using the appropriate vectors as carrier DNA. […] In addition, 0.1 μg of an AP1-Luc reporter was transfected for reporter gene assays. 48 hours post-transfection cells were serum starved for 20 hours and either left untreated or treated with TPA (200 ng/ml) or serum for 5 hours before being collected. Cells were lysed and cell extracts were used for immunoblotting or assayed for luciferase activity. For the GFP sorting experiments 5×10^6 NIH 3T3 cells were electroporated with either 100 μg pCMVori, 50 μg pCMV-GFP, and 50 μg pHACT or 100 μg pASC143, 50 μg CMV-GFP, and 50 μg CMV-HAC. Two days later cells were trypsinized and sorted for green fluorescent cells by preparative FACS. 100,000 GFP-positive cells were lysed in SDS-gel sample buffer and immunoblotted.
(§4) COS-1 cells were transiently transfected with HA-MEK and increasing amounts of RKIP expression vectors. Serum starved cells were stimulated with 100 ng/ml TPA for 20 minutes, and the kinase activities of Raf-1 and HA-MEK immunoprecipitates were measured.

MEK [5] = test: In vitro kinase assay: MEK; assay type: biochemical
Experimental: as §2, with “results. […]” for “results.”

Raf-1 [6] = test: Raf-1 immunoprecipitate kinase activity in transfected COS-1 cells; assay type: cell-based; settings: co-transfection of RKIP
Experimental: as §3, §4

ERK [7] = target: T5, ERK (Homo sapiens, UniProt P28482); test: In vitro kinase assay: ERK; assay type: biochemical; settings: purified RKIP, recombinant proteins in vitro
T5 construct: GST; made in house
T5 sequence (P28482 whole entry): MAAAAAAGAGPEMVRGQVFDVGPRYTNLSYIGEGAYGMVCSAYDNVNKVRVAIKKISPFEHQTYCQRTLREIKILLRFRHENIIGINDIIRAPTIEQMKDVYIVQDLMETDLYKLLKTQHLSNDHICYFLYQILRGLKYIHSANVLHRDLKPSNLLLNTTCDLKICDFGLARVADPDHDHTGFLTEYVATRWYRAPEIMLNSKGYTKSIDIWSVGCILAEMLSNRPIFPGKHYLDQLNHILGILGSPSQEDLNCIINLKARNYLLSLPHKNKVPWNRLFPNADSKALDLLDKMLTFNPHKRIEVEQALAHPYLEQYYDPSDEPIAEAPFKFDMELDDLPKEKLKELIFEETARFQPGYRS
Experimental: as §2

ERK [8] = test: HA-ERK immunoprecipitate kinase activity in transfected COS-1 cells; assay type: cell-based
Experimental: as §3
COS-1 cells were transfected with the indicated expression plasmids plus increasing amounts of RKIP. HA-ERK-2 was immunoprecipitated and assayed with MBP.
COS-1 cells were transfected with the indicated expression vectors and the kinase activity of HA-ERK immunoprecipitates was examined.

[9] = purified RKIP, recombinant proteins in vitro
[10] = microinjection of an RKIP expression vector

Molecule: COc1cccc(-c2cc(=O)c3ccccc3o2)c1N [PD98059, reference compound]
suppression of AP-1 reporter induction caused by anti-RKIP antibodies [1]: suppressed

Molecule: N#CC(=C(/N)Sc1ccccc1N)/C(C#N)=C(\N)Sc1ccccc1N [U0126, reference compound]
suppression of AP-1 reporter induction caused by anti-RKIP antibodies [1]: suppressed

mechanism of Raf-1 inhibition (Raf-1 [2]; Lineweaver-Burk plot, GST-MEK-1 substrate): competitive inhibitor | Raf-1 autophosphorylation or phosphorylation of MBP by Raf-1 (Raf-1 [2]; in vitro): did not interfere | phosphorylation of MEK by Raf-1 (Raf-1 [2]; [9]): decreased | RKIP binding to activated versus inactive GST-Raf-1 (GST-Raf-1): Less RKIP bound | physical interaction between Raf-1 and MEK (Raf-1-MEK complexes): disrupted | activation of MEK by TPA (MEK [4]): strongly inhibited | ERK phosphorylation by MEK (MEK [5]; [9]): did not inhibit | ELK phosphorylation by ERK (ERK [7]): did not inhibit
B1: RKIP: Raf kinase inhibitor protein; used as purified recombinant protein or expressed from vector p353/RKIP (protein, UniProt P30086 2-187, looked up)
Phosphatidylethanolamine-bindi …: PVDLSKWSGPLSLQEVDEQPQHPLHVTYAGAAVDELGKVLTPTQVKNRPTSISWDGLDSGKLYTLVLTDPDAPSRKDPKYREWHHFLVVNMKGNDISSGTVLSDYVGSGPPKGTGLHRYVWLVYEQDRPLKCDEPILSNRSGDHRGKFKVASFRKKYELRAPVAGTCYQAEWDDYVPKLYEQLSGK
induction of foci by v-fos or mutationally activated MEK alleles (NIH 3T3 and 208F cells; RKIP overexpression): only to a small extent | v-src transformation (NIH 3T3 and 208F cells; RKIP overexpression): failed to inhibit | total colony yield (NIH 3T3 and 208F cells; RKIP overexpression with BXB): decreased | transformation efficiency of BXB (NIH 3T3 and 208F cells; RKIP overexpression, morphological transformation, focus formation, anchorage independent growth): significantly reduced | sensitivity to apoptotic stimuli [3]: rendered sensitive | basal and BXB induced AP-1 activity (AP-1 activity): diminished | MEK phosphorylation by MEKK-1 (MEKK-1): did not prevent | AP-1 induction by TPA and BXB [1, 10]: impaired | AP-1 stimulation by ERK-1 [1, 10]: did not interfere | inhibition of MEK-DD or MEK activated by TPA treatment of cells (MEK [5]; immunoprecipitated from COS-1 cells): failed to inhibit | activation of Raf-1 by TPA (Raf-1 [6]): only a small influence | ERK activation by MEK-DD (ERK [8]; RKIP co-transfection): did not affect | activation of ERKs by v-Ras or v-Src oncogenes (ERK [8]; RKIP overexpression): downregulated | BXB induced activation of ERK (ERK [8]; increasing amounts of RKIP expression plasmid, dose dependent): inhibited

From patent US20040180341A1, “Transcriptional regulation of kinase inhibitors” (Brown University, priority 2003, published 2004)
